Common to all, as to test: SPR
Test [1] has as its target T1, Ad6 hexon, on wild-type human adenovirus type 6 virions (human adenovirus type 6).
T1 chain: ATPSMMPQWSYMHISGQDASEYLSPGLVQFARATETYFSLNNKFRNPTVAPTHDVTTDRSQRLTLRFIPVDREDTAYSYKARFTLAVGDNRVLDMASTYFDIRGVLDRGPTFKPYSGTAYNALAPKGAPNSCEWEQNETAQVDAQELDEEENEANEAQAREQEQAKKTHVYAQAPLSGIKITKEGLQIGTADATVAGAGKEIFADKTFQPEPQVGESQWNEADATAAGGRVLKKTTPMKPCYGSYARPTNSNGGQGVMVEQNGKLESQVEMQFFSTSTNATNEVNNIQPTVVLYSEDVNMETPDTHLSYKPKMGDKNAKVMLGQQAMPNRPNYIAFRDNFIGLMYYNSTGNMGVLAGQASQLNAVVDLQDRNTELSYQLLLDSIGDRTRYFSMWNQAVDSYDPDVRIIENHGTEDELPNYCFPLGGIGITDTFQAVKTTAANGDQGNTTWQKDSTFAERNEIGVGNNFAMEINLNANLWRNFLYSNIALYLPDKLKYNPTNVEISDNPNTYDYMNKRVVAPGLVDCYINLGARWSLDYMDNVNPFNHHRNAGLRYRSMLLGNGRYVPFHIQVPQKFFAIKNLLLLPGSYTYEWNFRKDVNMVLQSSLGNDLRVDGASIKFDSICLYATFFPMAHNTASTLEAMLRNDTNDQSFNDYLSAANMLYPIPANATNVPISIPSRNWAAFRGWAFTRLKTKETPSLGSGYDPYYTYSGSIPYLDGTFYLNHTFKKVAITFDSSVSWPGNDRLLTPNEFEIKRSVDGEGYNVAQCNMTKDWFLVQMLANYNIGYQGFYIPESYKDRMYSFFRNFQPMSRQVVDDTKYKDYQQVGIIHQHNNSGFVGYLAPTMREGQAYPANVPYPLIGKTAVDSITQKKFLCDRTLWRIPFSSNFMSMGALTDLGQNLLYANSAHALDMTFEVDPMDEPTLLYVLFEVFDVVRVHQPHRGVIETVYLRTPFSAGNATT

The target of test [2] is T2, Ad2 hexon, on wild-type human adenovirus type 2 virions (human adenovirus type 2, UniProt P03277 1-968).
T2 chain: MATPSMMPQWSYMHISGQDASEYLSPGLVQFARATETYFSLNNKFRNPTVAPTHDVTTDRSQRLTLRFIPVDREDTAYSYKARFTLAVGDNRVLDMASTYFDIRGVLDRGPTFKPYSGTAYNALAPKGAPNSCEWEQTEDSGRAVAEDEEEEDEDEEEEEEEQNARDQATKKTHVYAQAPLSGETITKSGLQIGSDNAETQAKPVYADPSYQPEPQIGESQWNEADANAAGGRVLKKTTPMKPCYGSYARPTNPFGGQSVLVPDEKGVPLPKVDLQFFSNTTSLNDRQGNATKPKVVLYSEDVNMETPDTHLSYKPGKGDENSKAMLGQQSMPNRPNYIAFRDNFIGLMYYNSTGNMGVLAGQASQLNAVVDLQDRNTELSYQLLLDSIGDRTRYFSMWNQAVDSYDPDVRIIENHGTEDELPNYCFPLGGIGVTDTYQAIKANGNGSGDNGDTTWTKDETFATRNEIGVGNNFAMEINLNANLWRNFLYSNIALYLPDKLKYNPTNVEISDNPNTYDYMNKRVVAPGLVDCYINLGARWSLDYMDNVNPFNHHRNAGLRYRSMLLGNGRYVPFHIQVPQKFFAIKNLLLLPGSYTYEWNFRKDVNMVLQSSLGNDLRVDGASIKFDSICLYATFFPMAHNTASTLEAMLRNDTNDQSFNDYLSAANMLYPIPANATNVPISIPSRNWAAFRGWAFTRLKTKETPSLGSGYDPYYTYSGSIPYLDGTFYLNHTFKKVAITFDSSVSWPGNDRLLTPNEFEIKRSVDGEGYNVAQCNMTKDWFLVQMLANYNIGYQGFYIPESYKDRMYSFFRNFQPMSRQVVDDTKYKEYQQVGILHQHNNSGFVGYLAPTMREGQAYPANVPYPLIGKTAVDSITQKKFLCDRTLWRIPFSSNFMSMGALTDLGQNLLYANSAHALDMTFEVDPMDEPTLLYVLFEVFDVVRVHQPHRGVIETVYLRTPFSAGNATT

Test [3] has as its target T3, Ad5 hexon, on wild-type human adenovirus type 5 virions (human adenovirus type 5, UniProt P04133 2-952).
T3 chain: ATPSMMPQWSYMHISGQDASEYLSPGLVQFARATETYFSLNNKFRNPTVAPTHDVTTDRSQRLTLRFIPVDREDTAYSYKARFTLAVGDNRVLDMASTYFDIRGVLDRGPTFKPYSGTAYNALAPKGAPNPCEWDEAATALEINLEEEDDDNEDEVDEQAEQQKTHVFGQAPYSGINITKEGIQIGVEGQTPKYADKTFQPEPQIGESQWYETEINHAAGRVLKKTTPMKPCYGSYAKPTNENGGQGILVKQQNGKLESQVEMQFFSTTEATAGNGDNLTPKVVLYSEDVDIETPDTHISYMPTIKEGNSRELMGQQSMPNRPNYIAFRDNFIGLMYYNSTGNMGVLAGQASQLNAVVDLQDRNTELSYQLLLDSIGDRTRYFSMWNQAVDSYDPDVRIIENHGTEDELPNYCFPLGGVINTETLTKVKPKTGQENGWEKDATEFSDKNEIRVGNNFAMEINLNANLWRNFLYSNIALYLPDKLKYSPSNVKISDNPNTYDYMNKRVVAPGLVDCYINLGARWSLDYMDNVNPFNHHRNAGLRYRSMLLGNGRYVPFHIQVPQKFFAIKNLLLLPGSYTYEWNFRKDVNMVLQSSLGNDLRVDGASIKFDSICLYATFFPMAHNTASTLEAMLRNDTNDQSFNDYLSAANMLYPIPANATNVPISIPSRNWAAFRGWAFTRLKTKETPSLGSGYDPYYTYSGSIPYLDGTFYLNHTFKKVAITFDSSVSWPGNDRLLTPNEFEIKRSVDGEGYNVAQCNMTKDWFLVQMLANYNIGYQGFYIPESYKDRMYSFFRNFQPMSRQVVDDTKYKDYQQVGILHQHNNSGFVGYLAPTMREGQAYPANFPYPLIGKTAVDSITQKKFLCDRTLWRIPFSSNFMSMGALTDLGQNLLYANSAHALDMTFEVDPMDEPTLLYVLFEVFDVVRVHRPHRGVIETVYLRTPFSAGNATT

Kd data for one molecule are collected here from paper PMC9536601 (2022).

B1: mouse coagulation factor X (natural protein)
chain 1: ANSFFEEFKKGNLERECMEEICSYEEVREIFEDDEKTKEYWTKYKDGDQCESSPCQNQGACRDGIGGYTCTCSEGFEGKNCELFVRKLCRLDNGDCDQFCREEQNSVVCSCASGYFLGNDGKSCISTAPFPCGKITTGRR
chain 2: VALNTSDSELDLEDALLDEDFLSPTENPIELLNLNETQPERSSDDLVRIVGGRECKDGECPWQALLINEDNEGFCGGTILNEFYILTAAHCLHQARRFKVRVGDRNTEKEEGNEMVHEVDVVIKHNKFQRDTYDYDIAVLRLKTPITFRMNVAPACLPQKDWAESTLMTQKTGIVSGFGRTHEKGRQSNILKMLEVPYVDRNTCKLSTSFSITQNMFCAGYEAKLEDACQGDSGGPHVTRFKNTYYVTGIVSWGEGCARKGKYGIYTKVTTFLKWIDRSMKARVGPTAETPRTAGPPN
modifications: gamma-carboxylated glutamate residues in the Gla domain
What is called Kd is the constant that tells how readily two partners part at equilibrium. Lower therefore signals tighter binding. As to B1, the results for the Kd in test [1], in test [2] and in test [3] were 0.42 nM, 0.76 nM and 0.35 nM, respectively.
